Data on 13 sequences can be found in the DeepSol protein solubility set.

The series is described as follows: soluble on expression in E. coli; label from the status in PepcDB or PDB records.
Regarding “MSLNVVVQKYGGSSVATPERIKNVAQRIKKKVDEGYKVVVVVSAMGKTTDNLIKLAKEISPRPDSRELDMLLATGEQVSAALLSMALKDLGVKAKSLNAFQVKIKTTPHHTSARIVDIDDSVIRENLKDYDVLVVTGFQGVNEHGDLTTLGRGGSDTSAVALAAKLRVPCEIYSDVDGIYTCDPRVHPRAKKLAYITYDEALELTALGAKVLHSRSVEIAKKYGIPIYCASSFTEEEGTMVVERLPEWLEEPVVTGATISHGQIKVSISFLPKDVKYITAIFEEVGKRALNVDMISLVPSNGKVFLSFTILEDHKEDLDEALKEALRDVEGWKSTYEGGFAKLSIVGVGMRTSPGVAARFFEALERAGVTPELVTTSEIKISCLVPEEKAEEALKSVIEEFELEGHHHHHH”, the “soluble on expression in E. coli” value is recorded as “soluble”. As to “MRRIDMRSWIQNTKKLLPDLLPVMQTRMQILQYIRLMQPIGRRNLSASLGMTERVLRSEVQVLKEQNLVHVASSGMTLTEEGTALVLALEDFMKEISGLKVLEKQLKETLDLDEVFVVPGDSDESPWVKLEMGRACVTCIKDRLTANNIVAVAGGTTLAAAADMMQLDCKDLHMLFVPARGGIGEGVELEANTICAKMAQNTMSNYRLLYVPDHVSSEAYASIVTEPSVKEVLELIRSSNIVIHGIGDALTMARRRSTSEADWLKIQASEAVGEAFGYYFNEEGNVVHKVRTVGMQLEDLQNVSHVVAVAGGSSKAKAIQAVIKQGHTSILITDEGAAKQLTKGFTL”, the “soluble on expression in E. coli” value is listed as “not soluble”. The same measure for “MSLKLIVKIGLIVLLLMFNYQGVDADVVSSAIDRYATTTEHQDNMASDHGTLDTMSFTHSLLTGQQQVLAKLMPDDLRIRRAEELQQNFLKILIGRFSLREEILATDRAKIFPSNPIHCVSPACHYFVFTLRRILIEGHHHHHH”: “not soluble”; for “GMNANQFLKAVSQLQGWRECAFLLALAERSFPNYALFADAVGLKTGGKMRQLLDLAWDMLQKDVADAAIPQLLSKLETLCPNVDEYDAYGVYPAFDFCQLLEQALLNRLNPNKHRATEASQLATRTVMDFVEMSEGEGMDENELVRVFEHHPLLKDDKLFQRDTVMALYYYRTPKEAFLAELRAGAANDGVSNLGISLEG”: “soluble”; for “MAHHHHHHMTYYTVEEITDRRINENDGAIEYAVKWEGVAGELTWEKRHQLTENCAETVQAVDQRCMDATDEELERWRDGKWKRGAKRAHDAPPLVGTTTERRKRSRSVSPAAGEDLEQVEVLNGLLLRPPCGAQNAEEEGTILMLGEVVLAEEASAILNGTGSYRKKCRTATVSTAVAFHTAPALDIEKRWRGIHGQSLLHSIEVAQSITPFHPHFRLHGCDPATRCAMALEVERSSHLRIISIAPPLMTHSGAVFGLPVALDPLVGEKDVEQLRQSVQLESPLFGSAAQELVKPHVEQMVVRYIIPEVTPATDDDTATPTTELFPVHGRIASMPLSVFRVVFPQLLIDYLLTNSVVLR”: “not soluble”. Consider “MGDVSKLSSNQVKLLETAFRDFETPEGSGRVSTDQIGIILEVLGIQQTKSTIRQLIDEFDPFGNGDIDFDSFKIIGARFLGEEVNPEQMQQELREAFRLYDKEGNGYISTDVMREILAELDETLSSEDLDAMIDEIDADGSGTVDFEEFMGVMTGGDE”, for which the “soluble on expression in E. coli” value is “soluble”. With “MSNQRDYTLIIDKSGSMSIIEPKFQKSRWELVQESTLALARKCDQLDANGITVYTFSGKFRRYDNVNASKVEQIFQENEPVGGTNLTAVLQDALNNFLQRKKSNQAPTGETILVITDGEPNDRRSVFEIIIQASKCLDADEELAISFMQIGNDPSATKFLQALDDQLMEVGAKFDIVDTVTFDEMEDLTLTEVLLNAIEDLEHHHHHH”, the “soluble on expression in E. coli” value is “soluble”. Under “SPDHLFPPKPNTRVVVAKFPMGAVTVEDLLVLGKPFGTVVKHLVLPAKGFLEFSAHKEAVNMVNHFQQKPAFVKDTRVGLYLSPRVEGIHSPPKYDEPVPKRLKRTNNPSVVCFSHLPPGEDNQAEVLELAAMFGEVWQSKFLDGKALIEMVDWRDADIMVKYYYSNPLKIQGKSIKVTMSYIKSLREMPGELTPRKSDSSKHSRQKEESSVKDKADDTNQESSEKETKTIKTPEQSQEEGVQLEEGTDHYNNLKLKHAVEEQADGQPDGE” stands “soluble”; under “MSLKNNIYGNVPCFLNSKNLNQTNTLDTDVIVYGAPFEGESTWGDYTGVELGPKQIRVCSARYSQYLPELNHIDISEHLTMGDVGDVPFVAHDNKQSYDNISDFAKKLWDSGKFLVGFGGEHGVTYPILKALTETGKKVGIIHLDAHYDNMPDYEGEPYARNTPFMRLYETDGIRNESIIHTGIHGPRNKPETGRFAQEAGAVTLTINDIRAAKDLKTYAHEIYAQASKDVDVVYLTICSDVLDFAFNPGGPVDGNGLSSYELLTMIHEFGKLGLGGMDYVEVYPMMDANQNSAHFVSTAVLYVLAGHVAYLNQTEGHHHHHH”, “soluble”. The same measure for “MAAERKTKLSKNLLRMKFMQRGLDSETKKQLEEEEKKIISEEHWYLDLPELKEKESFIIEEQSFLLCEDLLYGRMSFRGFNPEVEKLMLQMNAKHKAEEVEDETVELDVSDEEMARRYETLVGTIGKKFARKRDHANYEEDENGDITPIKAKKMFLKPQD”: “soluble”; for “DRTIPDYTSFNTVDEWLDAIKMSQYKESFASAGFTTFDIVSQMTVEDILRVGVTLAGHQKKILNSIQVMRAQMNQ”: “soluble”; for “MGSDKIHHHHHHMEHTRLHNKGLTLDKIFLKTLRTTHNGFLTDGKDRIGYGEFYDRVIAIAEELHRDLGENRTVSVMDWNTLNFATLLYAVPLSGNVLHPVDVRQPPEQVMSSMKEAQSSYLLYSADFGRLADAVKTSGIVKEDNIRSTKEVFDESTDHKPGNAGLPELEEDRIASVLFSSGTTGKPKGVRYRHRDIVLTIWAMETNLSAFPGPARLASSDTVFSLIPFFHLWSWGTLYISTLIGASYVVGGRFDPGSTSDLIKRNGVTWMSMVPTMFNALISWDRNSLDGMKILIGGSAIPSGILNFASDHQIELTGIYGFTDGLAAGIGTSNINGSLSERNADAVNAITPLVFTDFEVEGENNEIKFRSPWIPEGYFNVQEERAYRDGWFYPGDSAEFTQDGKIRIRDRIKDLIKSGGEFIPSALLEYYISEIGDIGDVAVIGVHDDKWIERPVAIYRTRSGATVNDEIIRSYLKDLSNKGLIRDWWIPDRFIPVDSMPMTGTGKIDKKTLRAMLEKGDLRTDRK”: “not soluble”. Under “MGSKRRFSSEHPDPVETSIPEQAAEIAEELSKQHPLPSEEPLVHHDAGEFKGLQRHHTSAEEAQKLEDGKINPFTGREFTPKYVDILKIRRELPVHAQRDEFLKLYQNNQIMVFVGETGSGKTTQIPQFVLFDEMPHLENTQVACTQPRRVAAMSVAQRVAEEMDVKLGEEVGYSIRFENKTSNKTILKYMTDGMLLREAMEDHDLSRYSCIILDEAHERTLATDILMGLLKQVVKRRPDLKIIIMSATLDAEKFQRYFNDAPLLAVPGRTYPVELYYTPEFQRDYLDSAIRTVLQIHATEEAGDILLFLTGEDEIEDAVRKISLEGDQLVREEGCGPLSVYPLYGSLPPHQQQRIFEPAPESHNGRPGRKVVISTNIAETSLTIDGIVYVVDPGFSKQKVYNPRIRVESLLVSPISKASAQQRAGRAGRTRPGKCFRLYTEEAFQKELIEQSYPEILRSNLSSTVLELKKLGIDDLVHFDFMDPPAPETMMRALEELNYLACLDDEGNLTPLGRLASQFPLDPMLAVMLIGSFEFQCSQEILTIVAMLSVPNVFIRPTKDKKRADDAKNIFAHPDGDHITLLNVYHAFKSDEAYEYGIHKWCRDHYLNYRSLSAADNIRSQLERLMNRYNLELNTTDYESPKYFDNIRKALASGFFMQVAKKRSGAKGYITVKDNQDVLIHPSTVLGHDAEWVIYNEFVLTSKNYIRTVTSVRPEWLIEIAPAYYDLSNFQKGDVKLSLERIKEKVDRLNELKQGKNKKKSKHSKKHHHHHH” stands “soluble”.
